How the values were obtained:
[1] = target: human CD3 (CD3ε of the TCR/CD3 complex) on purified human CD3 T cells (human) (UniProt P07766); test: flow cytometry on purified human CD3 T cells, antibody at 0.1 µg/ml
[2] = target: human CD3 (CD3ε of the TCR/CD3 complex) on purified human CD3 T cells (human) (UniProt P07766); test: flow cytometry on purified human CD3 T cells, antibody at 10 µg/ml
[3] = target: human CD3 (CD3ε of the TCR/CD3 complex) on purified human CD3 T cells (human) (UniProt P07766); test: flow cytometry on CD3+ Jurkat cells, 10 µg/mL, FL4: anti-His mouse mAb + APC anti mIgG, RED2-HLin (right panel); unstained Jurkat 7.61
[4] = target: human CD3 (CD3ε of the TCR/CD3 complex) on purified human CD3 T cells (human) (UniProt P07766); test: flow cytometry on CD3+ Jurkat cells, 10 µg/mL, FL1: anti-His FITC, GRN-HLin (left panel). DOUBTFUL: the printed value disagrees with the histogram, which lies right of ESK1+L2K, and equals the second row of the left table of FIGURE 8
[5] = target: human CD3 (CD3ε of the TCR/CD3 complex) on purified human CD3 T cells (human) (UniProt P07766); test: flow cytometry on purified human CD3 T cells, antibody at 1 µg/ml

B1: control bi-specific antibody (irrelevant human IgG1 antibody ET901 as scFv replacing ESK1 scFv, with anti-CD3 scFv) (bispecific antibody, part only; not given: ET901 control scFv, part only)
chain, part: DVQLVQSGAEVKKPGASVKVSCKASGYTFTRYTMHWVRQAPGQGLEWIGYINPSRGYTNYADSVKGRFTITTDKSTSTAYMELSSLRSEDTATYYCARYYDDHYCLDYWGQGTTVTVSSGEGTSTGSGGSGGSGGADDIVLTQSPATLSLSPGERATLSCRASQSVSYMNWYQQKPGKAPKRWIYDTSKVASGVPARFSGSGSGTDYSLTINSLEAEDAATYYCQQWSSNPLTFGGGTKVEIK
Q: What does the source list for B1?
A: Median fluorescence intensity (MFI) [1]: 26.2 MFI; Median fluorescence intensity (MFI) [2]: 188 MFI; Geom. Mean [3]: 94.3; Geom. Mean [4]: 47.9; Median fluorescence intensity (MFI) [5]: 153 MFI

Source: patent US20160280796A1
